The values below come from patent US20260132219A1.

The target of one assay is human HER3 (UniProt P21860). As to the kind of experiment: BLI; absence of human NRG1.
The target of a further assay is human HER3 (human) (UniProt Q02297). The experiment in a line: BLI; presence of human NRG1.

Turning to LJM-716, the Kd was less than 1 pM with human HER3 and 16.8 nM with human HER3 (human).
